Consider 41 sequences from the nanobody polyreactivity screen of Harvey et al. (2022).

The nature of the series: yeast display, Sf9 membrane polyspecificity reagent, FACS + sequencing; frameworks hold sequencing errors. Put shortly:
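Galactose-induced (36–48 hours) yeast carrying a synthetic nanobody display library were exposed to 10% biotinylated, detergent-solubilized Sf9 membrane reagent at 4 °C for 1 hour. FACS followed streptavidin microbead enrichment, using low and high (top ~1%) gates for expression (anti-HA) and reagent binding (streptavidin). Colony PCR, MiSeq 2 × 250 sequencing and CDR-length filtering followed. Labels for polyreactivity reflect the gate of origin.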
Regarding “QVQLVESGGGLVQAGGSLRLSCAASGSTFGYNAMGWYRQAPGKERELVAAISNGSDRTYYADSVKGRFTISRDNAKNTVYLQMNSLKPEDTAVYYCAKDRDFSSPPTESGFDYWGQGTQVTVSS”, the “polyreactivity (PSR sort gate)” value is “low polyreactivity”. Take “QVQLVESGGGLVQAGGSLRLSCAASGRIFFLNTMGWYRQAPGTERELVAAITRGGSTYYADSVKGRFTISRDNAKNTVYLQMNSLKPEDTAVYYCAADVYGGIGYDYWGQGTQVTVSS”: the “polyreactivity (PSR sort gate)” value is given as “low polyreactivity”. The value for “QVQLVESGGGLVQAGGILRLSCAASGLIFSYNTMGWYRHAPGKERELVAGNTSSGSTYYADSVKGRFTISRDNAKNSVYLQMNSLKPEDTAVYYCAAEWDDGRSWYWYYLVGFEYWGQGTQVTVSS” was “high polyreactivity”.

For “QVQLVESGGGLVQAGGSLRRSCAASGSTFTTYAMGWYRQAPGKERELGAAITSVGSTYYEDSVKGRCTISRDNAKNTVYLQLNSLKPEDTAVYYCNVVYRDQYNDWGQGTQVTVSW”, the “polyreactivity (PSR sort gate)” value is “low polyreactivity”. As for “QVQLVESGGGLVQAGGSLRLSCAASGSIFGLYAMGWYRQAPGKERELVAAITWSSGNTYYADSVKGRFTISRDNAKNTVYLQMYSLKPEDTAVYYCAATSVSISYRYDYWGQGTQVTVSS”, the “polyreactivity (PSR sort gate)” value was “high polyreactivity”. The value for “QVQLVESGGGLVQAGGSLRLSCAASGNTFQRYTMGWYRQAPGKERELVAAINSSGGSTFYADSVKGRFTISRDNAKNTVYLQMNSLKPEDTAVYYCAASWHTPTVYDEYYYWGQGTQVTVSS” was “low polyreactivity”; that for “QVHLVESGGCLVQAGGSLRLSCAAYGSIFPKYALGWYRQAPGKERELVATISYRGGRTYYADSVKRRFTISRDNAKNTVYLQMNSLKPEDTAVYYWNAHSQAKLDYWGQGTQVTVSS” was “low polyreactivity”. As for “QVQLEDSGGGLVQAGGSLRLICAASGSIFGSYAMGWYRHAPGKERELVAAINSGGSTNYADSVKGRFTISRDNAKNTVYLQMNSLKPEDTAVYYCAARLYSNEYRYDYWGQGTQVTVSS”, the “polyreactivity (PSR sort gate)” value was “high polyreactivity”. For the sequence “QVQLVESGGGLVQAGGSLRLSCAASGSTFVWYAMGWYRQAPGKERELVAVINWSAGRTYYADSVKGRFTFSRDTAKNTVYLQMNSLKPEDTAVYYCATRTYYRSRTVGWGKMDYWGQGTQVTVSS”, the “polyreactivity (PSR sort gate)” value is listed as “high polyreactivity”. As to “QVQLVDSGGGLVQAGGSLRLSCAASVFTFYCNAMGWYRQAPGKERELVAAITSTGNTYYADSVKGRFTISRDNAKNTVYLQMNSLKPEDTAVYYCARRGDILYDYWGQGTQVTVSS”, the “polyreactivity (PSR sort gate)” value is reported as “low polyreactivity”. Consider “QVQLVESGGGLVQAGGSLRLSCAASGSTFAGNGMGWSRQAPGKERELVAGIDVTGGSTYYADSVKGRFTISRDNAKNTVYLQMNSLKPEDTAVYYCNARYVYHSSFAGFDYWGQGTQVTVSS”, for which the “polyreactivity (PSR sort gate)” value was “low polyreactivity”.

“QVQLVESGGGLVQAGGSLRLSCAATGFTFHHYVMGWYRHAHGKEREFVASIRWRGGSTYYADSVKGRFTISRDNAKNTVYLQMNSLKPEDTAVYYCAADSFTYWSWLHGYWGQGTQVTVSS”: the “polyreactivity (PSR sort gate)” value is given as “high polyreactivity”. The entry for “QVQLVESGGGLVQAGGSLSLSCAASGRTFWVYAMGWYRQAPGKERELVAAIRRGGITNYADSVKGRFTNSRDNAKNTVYLQMNCLKPEDTALYYCDTDKYGYLTRYYYWGQGTQVTVSS” is “low polyreactivity”; for “QVQLVESGGGLVQAGGSLRLSCAASGRTFGSYAMGWYRQAPGKERELVAAINWSGSSTYYADSVKGRFTISRDNAKNTVYLQMNSLKPEDTAVYYCAATPSFYRSYQGMDYWGQGTQVTVSS” it is “high polyreactivity”; for “QVQLVESGGGLVQAGGSLRLTSAASGSTIDYYAMGWYRQAPGKERELVARISKRGGSTYYADSVKGRFTISRDNAKYTVYLQMNSLKPEDTAVYFCAKRVRISYTNYHFDYWGQCTQVTVSS” it is “high polyreactivity”. Consider “QVQLVESGGGLVQAGGSLRLSCAASGRIFGTYVMGWYRPAPGKERELVARITGGGSTNYADSVKGRFTISRDNAKNTVYLEMNSLKPEDTAVYYCARDYGPYLSPEKPAPMDYWGQGTQVTVSS”, for which the “polyreactivity (PSR sort gate)” value is “low polyreactivity”. Take “QVQLVESAGGLVQEGGSLRLSCAASGRIFARYAMGWSRQAPGKERELVAAITDSGDNTYYADSVKGRFTISRDNAKNTVYLQMNSLKPEDTAVYYCKAYFLVHYRRLRPYDYWGHGTQVTVSS”: the “polyreactivity (PSR sort gate)” value was “low polyreactivity”. Regarding “QVQLEESGGGLVQAGGTLRLSCAASGSIFRNYAMGWYRQAPGKEWQLVAAISRSGTSTYYADSVKGRFTISRDNAKNTVYFQMNSLKPEDYAVYYCNARTYVAVGFNYWGQGTQVTVSS”, the “polyreactivity (PSR sort gate)” value is listed as “high polyreactivity”. For “QVQLVESGGGLVQAGGSLRLSCAASGFTFPYYAMGWYRQAPGKERELVAAISYSGSTTYYADSVKGRFTISRDNAKNTVYLQMNSLKPEDTAVYYCAKAGYYYFQQWQVDYWGQGTQVTVSS”, the “polyreactivity (PSR sort gate)” value is listed as “high polyreactivity”.

Turning to “QVQLVESGGGLVQAGGSLRLSCAASGIIFSSNAMGWYTQAPGKERELVAAISRRGGSTYYADSVKGRFTISRDNAKNSVYLQMNSLKPEDTAVYYCNALLYNGAGYDYWGQGTQVTVSS”, the “polyreactivity (PSR sort gate)” value was “high polyreactivity”. The value for “QVQLVESGGGLVQAGGSLRLSCAASGRIFYNYAMGWYRQAPGKERELVAAISGSGGSTYYADSVKGRFTISRDNAKNTVYLQMNSLKPEDTAVYYCNADTVYTRTAPYDYWGQGSQVTVSS” was “low polyreactivity”. The entry for “QVQLVESGGGLVQAGGSLRLSCAASGSIFTPNVMGWYRQEPGKERELVAAISQRGGSTYYADSVKGRFTLSRDNAKNTVYLQMNSLKPEDTAVYYCNKDNAVDRLPWFQVTYDYWGQGTQVTVSS” is “low polyreactivity”; for “QVQLVESGGGLVQAGGSLRLSCAASGSTFGPNGMGWYRHAPGKERELVARIDRIGGGTYYADSVKGRFTISRDNANNTVYLQMNSLKPEDTAVYYCAAYGPSPFSQGYAKGDYWGQGTQVTVSS” it is “low polyreactivity”.

Consider “QVQRVESGGGLVQAGGSLRLSCAASGFIFYDYMGWYRQAPGKERVLVAVISYSGSSTYYADSVKGRFTISRDNAKNTVYLQMNSLKPEDNAVYYCAARKVNGWDYDYWGQGTQVTVSS”, for which the “polyreactivity (PSR sort gate)” value is “low polyreactivity”.

As for “QLQLEESGGGLVQAGGSLRLSCAASANTIYQYAMGRYRQAPGKERELVAAIDWSGGSTYADSVKGRFTISRDNAKNTVYLQMNSLKPEDTAFYYCNASVKPSNVWSRGYDYWGQGTQVTVSS”, the “polyreactivity (PSR sort gate)” value was “low polyreactivity”. The value for “QVQLVESGGGLVQAGGSLRLSCAASGSIFAVNAMGWYRQAPGKERELVAAITSGGNTYYADSVKGRFTISRDNAKNTVYLQMNSLKPEDTAVYYCATVFSVQGWYFGMNYWGQGTQVTVSS” was “low polyreactivity”; that for “QVQLVESGGGLVQAGGSLRLSCAASGFTFVNYAMGWYRQAPWKERELVAAIRRSGSRTYYADSVKGRFTISRDIAKNTVYLQMNCLNPEDTAVYYCAAVWYRLYGYWGQGTQVTVSS” was “low polyreactivity”; that for “QVQLVESGGGLVQAGGSLRLSCAASGNILSPYTMGWYRQAPGKERELVAGISRSGGTTYYADSVKGRFTLSRDNAKTTVYLQINSLKTEDTAVYYCASGLIYGYSGYDSWGQGTQVTVSS” was “low polyreactivity”. Consider “QVQLVESGGGLVQAGGSLRLSCAASGGTFQRYAMGWYRQAPGKERELVAAISSGGRTYYADSVKGRFTISRDNAKNTVYLQMNSLKAVDTAVYYCNAVGWTRYWRIGWSAYYYWGQGTQETVSS”, for which the “polyreactivity (PSR sort gate)” value is listed as “high polyreactivity”.

For “QVQLVESGGGLVQAGGSLRLSCAASGSIFKYNDMGWYRQAPGKEREWVAAIRLGGGSTSYADSVKGRFTISRDNAKNTVYLQMNSLKPEDTAVYYCNAYAVYLRYLWYDYWGQGTQVTVSS”, the “polyreactivity (PSR sort gate)” value was “low polyreactivity”. The entry for “QVQLVESGGGLVQAGGSLRLSCAASGRTFYIYAMGGNRQATGKERELVAAITWRGGRTYYADSVKGRFTISRDNAKNTFYLQMNSLKPEDTAVYYCGARTGQGPMYKHWGQGTQVTLSS” is “high polyreactivity”; for “QVQLVESGGGLVQAGGSLRLSCAASGRTFYYYAMGWYRQAPGKERELVAAITSTGGSTYYADSVKGRFTISRDNAKNTVYLQMNSLKPDDTAVYYCAADQVWGYDSWGQGPQVTVSS” it is “low polyreactivity”; for “QVQLVESGGVLVQAGGSLRLSCAASGFTFWSYAMGWYRQAPGKERELVAAISSGDNTYYADSVKGRFTISRDNAKNTVYLQMNSLKPEDTAVYYCNAFYYYEYDYWGQGTQVTVSS” it is “low polyreactivity”.

Take “QVQLVESGGGLVQAGGSLRLSCAASGFTIGYNVMGWYREAAGKERELVATISWNGARTYYADSVKGRFTISRDNAKNTVYLQMNSLKPEDTAVYYCAARRYYRGEYDYWGQGTQVTVSS”: the “polyreactivity (PSR sort gate)” value is “low polyreactivity”. The value for “QVQHVESGGGLVQAGGSLRLSCAASGSIFSAYTMGWYRPAPGKERELVAAISSSGGRTYYADSVKGRFTISRDNAKNTVYLQMNSLKPEDTAVYYCAAGYWWALSSRGYGYWGQGTQVTVSS” was “high polyreactivity”; that for “QVQLVESGGGLVQAGGSLRLSCAASGFIFYRNTMGWYRPAPGKEREFVAAIRWRGGSTYYADSVKGRFTISRDNAKNTVYVQMNSLKPEDTAGYYCAADTRPGYSGFEYWGQGTQVTVSS” was “high polyreactivity”; that for “QVQLVESGGGLVQAGGSLRLSCAASGSTFLVYAMGWYRQAPGKERELVADITSRGGSTYYADSVKGRFTISRDNAKNTVYLQMISLKPEDTAVYYCAARKRFVLFDYWGQGTQVTVSS” was “low polyreactivity”.

“QVQLVESGGGLVQAGGSLRLSCAASGSTFQSYAMGWYRQAPGKERELVAAITTTGTRTYYADSVKGRFTISRDNAKNTVYFQMNSLKPEDTAVYSCNAQRLQAHRTSRRYDYWGQGTQVTVSS”: the “polyreactivity (PSR sort gate)” value is given as “high polyreactivity”. The entry for “QVQLQVSGGVLVQAGGSLRLTCAASGSIFLTSEMGWYRQAPGKERELVAAIATGTSTNYADSVKGRFTISRDNAKNTVYLQMNSLKPEDTAVYYCETYHYWGQGTQVTVSS” is “low polyreactivity”.

As to “QVQLVESGGGLVQAGGSLRLSCAASGFTFNRYAMGWYRQAPGKERELVAAITSGGRTYYADSVKGRFTISRDNAKNTVYLQMNSLKPEDTAVYYCATLYVRNVSGYDYWGQGTQVTVSS”, the “polyreactivity (PSR sort gate)” value is on record as “high polyreactivity”. The entry for “QVQLVESGGGLVQAGGSLRLSGSASGRTFSQYVMRWYRQAPGQERELVAAISKRGGRTYYADSVQGRFTISRDNAKNTVYLQMNSLNPEDTAVYYCNDVYRYYPFDYWGQGTQVTVSS” is “high polyreactivity”.
